{
  "source": "patent US20240076396A1",
  "about": "(Regeneron, published 2024)",
  "key": {"[1]": {"target": "T1, human GITR expressed on the cell surface (human, UniProt Q9Y5U5 26-241)", "T1 sequence": "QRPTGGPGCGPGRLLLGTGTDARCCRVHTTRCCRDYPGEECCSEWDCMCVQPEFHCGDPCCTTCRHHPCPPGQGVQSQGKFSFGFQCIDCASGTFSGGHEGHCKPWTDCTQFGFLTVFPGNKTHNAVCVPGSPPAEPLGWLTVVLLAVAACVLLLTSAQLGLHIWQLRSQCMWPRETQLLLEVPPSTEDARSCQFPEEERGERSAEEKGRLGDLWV", "test": "cell-based or functional assay"}, "[2]": {"target": "T2, cynomolgus monkey GITR expressed on the cell surface (Macaca fascicularis (cynomolgus monkey))", "T2 construct": "whole, on cells; also called MfGITR; Jurkat/hCD20/MfGITR cells", "test": "flow cytometry on Jurkat/hCD20/MfGITR cells; max MFI over secondary antibody alone", "description": "Flow cytometry was used to evaluate mAb1 binding to Jurkat/hCD20/hGITR cells and Jurkat/hCD20/MfGITR cells. Jurkat/hCD20 cells were used as a negative control cell line for GITR binding. Cells were added to a 96-well V-bottom plate (2×10⁵ to 4×10⁵ cells/well) and incubated in Fc block solution, followed by successive incubation on ice with primary antibody (mAb1 or IgG1 isotype control) at final concentrations ranging from 18 pM to 300 nM and a secondary antibody (AF647-conjugated anti-human IgG) at 5 μg/mL. Cells were then stained with LIVE/DEAD Fixable Green Dead Cell Stain according to the manufacturer's instructions. […] Data were analyzed with Flow.lo software. For EC₅₀ (effective concentration at 50% activity) determinations, measured geometric MFI values were analyzed using a 4-parameter logistic equation over a 9-point response curve with GraphPad Prism. The fold binding was determined by taking the ratio of the highest MFI on the curve to the MFI of the wells containing secondary antibody only.\n^a The maximum MFI was the highest mean MFI value within the concentration range tested (18 pM to 300 nM). ^b Fold binding was calculated as the maximum MFI above background (secondary antibody alone). h, Human; Mf, Macaca fascicularis (cynomolgus monkey); ND, Not determined because concentration-dependent binding was not observed"}, "[3]": {"target": "T3, hGITR.mFc (dimeric recombinant human GITR ectodomain protein, mouse Fc fusion) (human)", "T3 construct": "also called dimeric human GITR; dimeric GITR", "T3 chain": "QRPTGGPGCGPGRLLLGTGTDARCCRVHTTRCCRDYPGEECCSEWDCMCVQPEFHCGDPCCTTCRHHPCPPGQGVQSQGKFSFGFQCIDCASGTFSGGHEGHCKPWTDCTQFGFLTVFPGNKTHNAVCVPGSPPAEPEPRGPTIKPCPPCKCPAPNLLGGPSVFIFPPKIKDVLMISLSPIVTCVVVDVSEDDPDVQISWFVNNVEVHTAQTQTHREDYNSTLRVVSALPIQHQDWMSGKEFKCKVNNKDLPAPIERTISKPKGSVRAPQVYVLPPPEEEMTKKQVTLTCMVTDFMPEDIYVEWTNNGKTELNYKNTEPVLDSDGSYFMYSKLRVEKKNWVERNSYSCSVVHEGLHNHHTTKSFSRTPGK", "test": "SPR Biacore 2000 25C; CHOt supernatant antibody captured on anti-human Fc; 50 nM hGITR.mFc", "description": "Biacore experiments for antibodies secreted in conditioned culture medium were performed as follows. Using a Biacore 2000 instrument at 25° C., antibodies were captured for 80 seconds at a flow rate of 8 uL/min on a CM5 anti-humanFc-coupled surface. Approximately 1000-2000 RU of each antibody were captured. 100 nM hGITR.mmH (soluble monomeric hGITR, SEQ ID NO: 45) or 50 nM hGITR.mFc (dimeric Macaca fasicularis GITR, SEQ ID NO: 46) were injected over this surface for 2 minutes at a flow rate of 50 uL/min. Dissociation was measured for 2 minutes. The KD and t_{1/2} were calculated by fitting the double-referenced sensorgrams to a 1:1 binding model."}, "[4]": {"target": "T2, cynomolgus monkey GITR expressed on the …", "test": "flow cytometry, AF647-conjugated antibody on CD4+ CD69+ cynomolgus monkey primary T cells, donor 58945", "description": "FIG. 7 depicts antibody binding to CD69+ cynomolgus monkey primary T-cells. Primary cynomolgus monkey T-cells from 4 separate donors were stimulated in vitro with anti-CD2/anti-CD3/anti-CD28-coated beads. Cell-surface binding of AF647-conjugated mAb1 and AF647-conjugated IgG1 isotype control at a range of concentrations (8 pM to 200 nM) on CD69⁺ and CD69⁻ cynomolgus monkey primary CD4⁺ and CD8⁺ T-cells was detected using flow cytometry. Fluorescence intensity was plotted as geometric MFI. Mf, Macaca fascicularis (cynomolgus monkey)\nPeripheral blood mononuclear cells (PBMC) were isolated from human or cynomolgus monkey whole blood (4 donors each) using density centrifugation through Ficoll-Paque PLUS in SepMate tubes (for human PBMC) or 50 mL conical tubes (for cynomolgus monkey PBMC) and transferred to a fresh conical tube for incubation in Red Blood Cell (RBC) Lysis Buffer. […] After 4 days, activation beads were removed from the culture using a MACSiMAG Separator, and cells were collected and counted.\nFlow cytometry was used to evaluate mAb1 binding to human or cynomolgus monkey T-cells in activated PBMC. […] Data were analyzed with Flowio software. For EC₅₀ determinations, measured geometric MFI values were analyzed using a 4-parameter logistic equation over a 12-point response curve with GraphPad Prism."}},
  "data": [
    {"binder": "mAb1 (antibody, human IgG1, kappa, V domains shown, Human IgG1; N101D variant of CompAb1; also called N101D Variant; N101D) VH: QVQLQESGPGLVKPSETLSLTCIVSGGSISGYFWNWIRQPPGKGLEWIGYIYYSGTTIYNPSLKSRFTISLDTSKNQFSLKLTSVTAADTAVYYCARESYDPSPRYFDHWGQGTLVTVSS VL: not shown", "values": [
      {"measurement": "EC50, anti-CD3-mediated primary CD4+ T-cell proliferation, Donor 1900G", "setting": "[1]", "value": 430, "unit": "pM"},
      {"measurement": "EC50, anti-CD3-mediated primary CD4+ T-cell proliferation, Donor 2000U", "setting": "[1]", "value": 39.1, "unit": "pM"},
      {"measurement": "EC50, anti-CD3-mediated primary CD4+ T-cell proliferation, Donor 3600Y", "setting": "[1]", "value": 17200, "unit": "pM"},
      {"measurement": "EC50, anti-CD3-mediated primary CD4+ T-cell proliferation, Donor 3800U", "setting": "[1]", "value": 107, "unit": "pM"},
      {"measurement": "EC50, anti-CD3-mediated primary CD4+ T-cell proliferation, Donor 34001", "setting": "[1]", "value": 193, "unit": "pM"},
      {"measurement": "Fold Change in Activity, anti-CD3-mediated primary CD4+ T-cell proliferation, Donor 1900G", "setting": "[1]", "value": 3.14, "unit": "fold"},
      {"measurement": "Fold Change in Activity, anti-CD3-mediated primary CD4+ T-cell proliferation, Donor 2000U", "setting": "[1]", "value": 2.45, "unit": "fold"},
      {"measurement": "Fold Change in Activity, anti-CD3-mediated primary CD4+ T-cell proliferation, Donor 3600Y", "setting": "[1]", "value": 2.3, "unit": "fold"},
      {"measurement": "Fold Change in Activity, anti-CD3-mediated primary CD4+ T-cell proliferation, Donor 3800U", "setting": "[1]", "value": 2.45, "unit": "fold"},
      {"measurement": "Fold Change in Activity, anti-CD3-mediated primary CD4+ T-cell proliferation, Donor 34001", "setting": "[1]", "value": 2.62, "unit": "fold"},
      {"measurement": "Fold Change in Activity, anti-CD3-mediated primary CD4+ T-cell proliferation, Donor 41003", "setting": "[1]", "value": 2.54, "unit": "fold"},
      {"measurement": "Fold Binding", "setting": "[2]", "value": 277, "unit": "fold"},
      {"measurement": "Kd", "setting": "[3]", "value": 81.3, "unit": "pM"},
      {"measurement": "t1/2", "setting": "[3]", "value": 5.75, "unit": "h"},
      {"measurement": "EC50 (read off the curve)", "setting": "[4]", "value": "~4000", "unit": "pM"}
    ]}
  ]
}
